Test [1] deals with SARS-CoV-2 BA.2 spike trimer variant (SARS-CoV-2 Omicron BA.2, UniProt P0DTC2 16-1213). Description: ELISA.
In test [2] the target is SARS-CoV-2 B.1.1.529 spike trimer variant (SARS-CoV-2 B.1.1.529 (Omicron), UniProt P0DTC2 16-1213). Kind of test: ELISA. In general terms: ELISA stands for enzyme-linked immunosorbent assay.

B1: 3-E13-A (antibody, V domains shown)
VH: EVQLQQSGPELVKPGASVKMSCKASGYTFTDYNIHWVKQSHGKSLEWIGYINPNNGGTDYNQKFQGKATLTVNKSSSTAYMELRSLTSEDFAVYYCARGGFYGNYGAYYGMDFWGQGTSVTVSS
VL: DIQMTQSPASLSASVGETVTITCRTSENIYSHLAWYQQTQGKSPQLLVYNAKTLAEGVPSRFSGSGSGTHFSLKINSLQPEDFGSYYCQHHYGIPPEFGGGTKLEIK
Broadly, the EC50 is the midpoint of the concentration-response curve. Low readings indicate higher potency in that assay, high ones lower potency in that assay. As for B1, the EC50 in test [1] and in test [2] was 0.35 nM each time.

B2: 6-C19-A-WT (antibody, V domains shown)
VH: EVQLQQSGPELVKPGASVKMSCKASGYTFTDYNIHWVKQSHGKSLEWIGYINPNNGGTDYNQKFQGKATLTVDKSSSTAYMELRSLTSEDSAVYYCARGGFYGNYGSYYGMDFWGQGTSVTVSS
VL: DIQMTQSPASLSASVGETVTITCRTSENIYSHLAWYQQTQGKSPHLLVYNAKTLAEGVPSRFSGSGSGTQFSLKINSLQPEDFGSYFCQHHYGIPPEFGGGTKLEIK
As to B2, the EC50 in test [1] and in test [2] was 0.36 nM each time.

B3: 2-J9-A (antibody, V domains shown)
VH: EVQLQQSGPELVKPGASVKMSCKASGYTFTDYNIHWVKQSHGKSLEWIGYINPNNGGTDYNQKFQGKATLTVNKSSSTAYMELRSLTSEDSAVYYCARGGFYGNYGAYYGMDFWGQGTSVTVSS
VL: DIQMTQSPASLSASVGETVTITCRTSENIYSHLAWYQQTQGKSPQLLVYNTKTLAEGVPSRFTGSGSGTQFSLKINSLQPEDFGSYYCQHHYGIPPEFGGGTKLEIK
For B3, the concentration giving a half-maximal response (EC50) was 0.31 nM in test [1] and 0.4 nM in test [2].

B4: 8-N24-A (antibody, V domains shown)
VH: QVQLQQPGAELVKPGASVKVSCKASGYTFTSYWMHWVKQRPGQGLEWIGRIHPSDSDTNYYQKFKGKATLSVDKSSSTAYMQLSSLTSEDSAVYYCAIPLYSYDNSGGYYPMDYWGQGTSVTVSS
VL: DIVMTQSQKFMSTSVGDRVTITCKASQNVRTAVAWYQQKPGQSPKKLIYLASNRHTGVPDRFTGSGSGTDFTLAISNVQSEDLADYFCLQHWNYPFTFGSGTRLEIK
B4: the figures for the EC50 in test [1] and in test [2] were 3.25 nM and 4.19 nM, respectively.

B5: 10-B11-A (antibody, V domains shown)
VH: QVQLQQPGAELVKPGASVKVSCKASGYTFTSYWMHWVKQRPGQGLEWIGRIHPSDSDTNYYQKFKGKATLSVDKSSSTAYMQLSSLTSEDSAVYYCAIPLYSYDNSGGYYPMDYWGQGTSVTVSS
VL: DIVMTQSQKFMSTSVGDRVTITCKASQNVRTAVAWYQQKPGQSPKKLIYLASNRHTGVPDRFTGSGSGTDFTLAISNVQSEDLADYFCLQHWNYPFTFGSGTRLEIK
With B5, the EC50 in test [1] was determined as 0.84 nM; in test [2], 1.16 nM.

B6: 6-L8-A (antibody, V domains shown)
VH: EVQLQQSVAELVRPGASVKLSCTPSGFNIKNTYMHWMKQRPEQGLEWIGRINPANDDTKYAPKFQDKATITADTSSNTAYLQLSSLTSEDTAIYYCVYDVRWYFDVWGTGTTVTVSS
VL: DVVMTQTPLSLPVSLGDQASISCRSSQGLVHSNGNTYLHWYLQKPGQSPKLLIYKVSNRFSGVPDRFSGSGSGTDFTLKISRVEAEDLGVYFCSQSTHVPPTFGAGTKLELK
As for B6, the EC50 in test [1] came to 20.6 nM; in test [2], 64 nM.

B7: 4-K16-A (antibody, V domains shown)
VH: QIQLVQSGPELKKPGETVKISCKASGYTFTTYGMSWVKQAPGKGLKWMGWMSTYSGVPTYADDFKGRFAFSLETSASTAYLQINNLKNEDTATYFCASGDVGYWGQGTTLTVSS
VL: DIVMTQSQKFMSTSVGDRVSVTCKASQNVGTNVAWYQQKPGQSPKALIYSASYRYSGVPDRFTGSGSGTDFTLTISTVQSEDLAEYFCQQYNIYPSTFGGGTKLEIK
With B7, the EC50 is 3.87 nM in test [1] and 0.94 nM in test [2].

B8: 4-C3-A (antibody, V domains shown)
VH: EVQLQQSGPELVKPGASVKISCKASGYSFTGYYMHWVKQSHGNILDWIGYIYPYNGVSSYNQKFKGKATLTVDKSSSTAYMELRSLTSEASAVYYCARAYGSSYDYYYGLDYWGQGTSVTVSS
VL: DIVLTQSPASLAVSLGQRATISCKASQSVDYDGAGYMNWYQQKPGQPPKLLISSASNLQSGIPARFSGSGSGTDFTLNIHPVEEEDAATYYCQQSNDDPYTFGGGTKLEIK
As for B8, the 50% effective concentration (EC50) in test [1] was 3.07 nM; in test [2], 0.71 nM.

B9: 9-L13-A (antibody, V domains shown)
VH: QVQLKESGPGLVAPSQSLSITCTVSGFSLTSYAISWVRQPPGKGLEWLGLIWTGGGTNYNSALKSRLSISKDNSKSQIFLKMNSLQTDDTARYYCARGPPLIYYGDLYYFDYWGQGTTLTVSS
VL: DIQMTQSPSSLSASLGGKVTITCKASQDINKYIAWYQHKPGKGPRLLIHYTSTLQPGIPSRFSGSGSGRDYSFSISNLEPEDIATYYCLQYDNLWTFGGGTKLEIK
In the case of B9, the EC50 turned out to be 12 nM in test [1] and 10.9 nM in test [2].

B10: 10-I12-A (antibody, V domains shown)
VH: RVQLQQSGPELVRPGTSVKISCKASGYTFTDSYINWVTQRPGQGLDWIGWIFPGNDNTYYNEKFEGKATLTLDKSSSTAYMLLSSLTSEDSAVYFCARSGGLRLGFAYWGQGTLVTVSA
VL: NIVLTQSPASLAVSRGQRATISCRASESVDSYGHSFIHWYQQKPGQPPKILIYLASKLESGVPARFSGSGSRTDFTLTIDPVEADDAATYYCQQNNEDPWTFGGGTKLEIK
As for B10, the midpoint of the response in test [1], the EC50, lay at 81.1 nM.

B11: 9-J11-A (antibody, V domains shown)
VH: QVQLQQSGAELVKPGASVKMSCMASGYTFTTYPIEWMKQIHGKSLEWIGNFHPYNDDSKYNEKFKGKATLSVEKSSSTVYLELSRSTSDDSAVYYCARGSYGPYWYFDVWGTGTTVTVSS
VL: DIQMTQSPASLSASVGETVTITCRASGDIHNYLVWYQQKQGKSPQLLVYNAKALADGVPSRFSGSGSGTQYSLKINSLQPDDFGSYYCQHFWSIPYTFGGGTKLEIK
B11: the half-maximal effective concentration (EC50) in test [1] amounted to 8.21 nM; in test [2], 0.39 nM.

B12: 5-H22-A (antibody, V domains shown)
VH: QVQLQQSGAELVRPGASVTLSCKASGYTFTDYEMHWMKQTPVHGLEWIGAIDLETGGTVYNQKFKGKAILTADKSSNTAYMALRSLTSEDSAVYYCTREFPHYYGSRYGFPYWGQGTLVTVSA
VL: QIVLTQSPAIMSASPGEKVTITCSASSSVSYMHWLQQKPGTSPKLWIYSTSNLASGVPARFSGSGSGTSYSLTISRMEAEDAATYYCQQRSSYPYTFGGGTKLEIK
Molecule B12 had an EC50 in test [2] of 1.26 nM.

B13: 9-P9-A (antibody, V domains shown)
VH: DVKLVESGEGLVKPGGSLKLSCAASGFSFSNFGMSWVRQTPEKRLEWVAYISSGGDYIYYADTVKGRFTISRDNARNTLYLQMSSLKSEDTAIYYCTRGYFDYWGQGTTLTVSS
VL: DVLMTQTPLSLPVSLGDQASISCRSSQSIVHSNGNTYLEWYLQKPGQSPKLLIYTVSNRFSGVPDRFSGSGSGTDFTLKISRVEAEDLGVYYCFQGSHVPYTFGGGTKLEMR
Regarding B13, the results for the EC50 in test [1] and in test [2] were 0.3 nM and 0.29 nM, respectively.

B14: 2-P2-A (antibody, V domains shown)
VH: EVQLQQSGAELVRPGSSVKMSCKTSGYTFTSYGINWVKQRPGQGLEWIGYIYIGNGYTEYNEKFKGKATLTSDTSSSTAYMQLSSLTSEDSAIYFCARGGVDYWGQGTTLTVSS
VL: DVLMTQTPLSLPVSLGDQASISCRSSQSIVHSNGNTYLEWYLQKPGQSPKLLIYKVSNRFSGVPDRFSGSGSGTDFTLKISRVEAEDLGVYYCFQGSHVPYTFGGGTKLEIK
As to B14, the values for the half-maximal effective concentration (EC50) in test [1] and in test [2] were 0.5 nM and 0.58 nM, respectively.
